# Patent publication US20210095021A1 (MacroGenics, published 2021)
# Columns and labels:
# [1] = molecular target: HIV gp160 (HxB2) expressed by tetracycline-induced Jurkat 522 FY cells (HIV (HxB2), UniProt P04578 33-856); assay: cell-based or functional assay
# [2] = molecular target: HIV gp140 (CM244, subtype AE, R5-tropic) expressed by HEK 293 D371 cells (HIV (CM244, subtype AE)); assay: cell-based or functional assay
Binder,"EC50 (ng/mL) of CD8-mediated cytotoxicity, pan T cells, 24 h [1]","EC50 (ng/mL) of CD8-mediated cytotoxicity, pan T cells, 24 h [2]"
anti-CD3 × anti-HIV env bispecific diabody (anti-HIV env antibody 7B2 and humanized anti-CD3 Antibody 2 binding domains) (bispecific antibody) chain 1: DIVMTQSPDSLAVSPGERATIHCKSSQTLLYSSNNRHSIAWYQQRPGQPPKLLLYWASMRLSGVPDRFSGSGSGTDFTLTINNLQAEDVAIYYCHQYSSHPPTFGHGTRVEIKGGGSGGGGEVQLVESGGGLVQPGGSLRLSCAASGFTFSTYAMNWVRQAPGKGLEWVGRIRSKYNNYATYYADSVKGRFTISRDDSKNSLYLQMNSLKTEDTAVYYCVRHGNFGNSYVSWFAYWGQGTLVTVSSGGCGGGEVAALEKEVAALEKEVAALEKEVAALEK chain 2: QAVVTQEPSLTVSPGGTVTLTCRSSTGAVTTSNYANWVQQKPGQAPRGLIGGTNKRAPWTPARFSGSLLGGKAALTITGAQAEDEADYYCALWYSNLWVFGGGTKLTVLGGGGSGGGGQVQLVQSGGGVFKPGGSLRLSCEASGFTFTEYYMTWVRQAPGKGLEWLAYISKNGEYSKYSPSSNGRFTISRDNAKNSVFLQLDRLSADDTAVYYCARADGLTYFSELLQYIFDLWGQGARVTVSSGGCGGGKVAALKEKVAALKEKVAALKEKVAALKE,0.49 ng/mL,0.006 ng/mL
anti-CD3 × anti-HIV gp120 bispecific diabody (anti-HIV gp120 antibody A32 and humanized anti-CD3 Antibody 2 binding domains) (bispecific antibody) chain 1: QSALTQPPSASGSPGQSVTISCTGTSSDVGGYNYVSWYQHHPGKAPKLIISEVNNRPSGVPDRFSGSKSGNTASLTVSGLQAEDEAEYYCSSYTDIHNFVFGGGTKLTVLGGGSGGGGEVQLVESGGGLVQPGGSLRLSCAASGFTFSTYAMNWVRQAPGKGLEWVGRIRSKYNNYATYYADSVKGRFTISRDDSKNSLYLQMNSLKTEDTAVYYCVRHGNFGNSYVSWFAYWGQGTLVTVSSGGCGGGEVAALEKEVAALEKEVAALEKEVAALEK chain 2: QAVVTQEPSLTVSPGGTVTLTCRSSTGAVTTSNYANWVQQKPGQAPRGLIGGTNKRAPWTPARFSGSLLGGKAALTITGAQAEDEADYYCALWYSNLWVFGGGTKLTVLGGGGSGGGGQVQLQESGPGLVKPSQTLSLSCTVSGGSSSSGAHYWSWIRQYPGKGLEWIGYIHYSGNTYYNPSLKSRITISQHTSENQFSLKLNSVTVADTAVYYCARGTRLRTLRNAFDIWGQGTLVTVSSGGCGGGKVAALKEKVAALKEKVAALKEKVAALKE,0.75 ng/mL,0.024 ng/mL
